Experimental data published in patent US20250215073A1 (TOKUSHIMA UNIVERSITY, published 2025).

T1: FLT4-Fc (fusion product of the extracellular region of the human FLT4 protein and mouse antibody Fc) (human; mouse, UniProt P35916 25-775)
T1 construct: extracellular domain; Negative control antigen in the EIA
T1 sequence (looked up): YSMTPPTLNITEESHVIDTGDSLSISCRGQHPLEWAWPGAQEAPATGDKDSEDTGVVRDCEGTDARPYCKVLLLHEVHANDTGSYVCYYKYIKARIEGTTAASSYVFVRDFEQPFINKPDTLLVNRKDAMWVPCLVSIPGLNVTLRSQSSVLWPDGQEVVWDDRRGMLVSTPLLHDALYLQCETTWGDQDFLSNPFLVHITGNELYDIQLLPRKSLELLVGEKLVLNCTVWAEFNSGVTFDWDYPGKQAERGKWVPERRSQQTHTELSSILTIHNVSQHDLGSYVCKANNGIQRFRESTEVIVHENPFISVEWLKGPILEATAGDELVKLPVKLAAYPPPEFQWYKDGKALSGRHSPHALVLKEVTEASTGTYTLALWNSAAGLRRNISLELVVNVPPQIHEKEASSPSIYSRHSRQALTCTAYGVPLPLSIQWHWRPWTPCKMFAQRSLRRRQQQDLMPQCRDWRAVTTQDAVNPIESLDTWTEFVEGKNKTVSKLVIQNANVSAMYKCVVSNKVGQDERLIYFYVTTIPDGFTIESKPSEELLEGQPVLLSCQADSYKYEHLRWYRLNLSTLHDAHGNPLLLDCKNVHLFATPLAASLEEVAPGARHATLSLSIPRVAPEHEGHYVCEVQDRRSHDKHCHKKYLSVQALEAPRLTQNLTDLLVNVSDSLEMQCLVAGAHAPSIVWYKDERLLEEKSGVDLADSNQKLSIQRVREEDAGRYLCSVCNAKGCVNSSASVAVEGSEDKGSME


Assays:
human c-KIT = molecular target: T2, human c-KIT (human, UniProt P10721 26-976); assay: flow cytometry on fixed GIST-T1 cells, 10 µg antibody
T2 construct: whole, on cells; Endogenous c-KIT of the GIST cell line GIST-T1 and the small cell lung cancer line SY; also called c-KIT on GIST-T1 cells; c-KIT on SCLC cell line SY
T2 sequence (P10721 26-976): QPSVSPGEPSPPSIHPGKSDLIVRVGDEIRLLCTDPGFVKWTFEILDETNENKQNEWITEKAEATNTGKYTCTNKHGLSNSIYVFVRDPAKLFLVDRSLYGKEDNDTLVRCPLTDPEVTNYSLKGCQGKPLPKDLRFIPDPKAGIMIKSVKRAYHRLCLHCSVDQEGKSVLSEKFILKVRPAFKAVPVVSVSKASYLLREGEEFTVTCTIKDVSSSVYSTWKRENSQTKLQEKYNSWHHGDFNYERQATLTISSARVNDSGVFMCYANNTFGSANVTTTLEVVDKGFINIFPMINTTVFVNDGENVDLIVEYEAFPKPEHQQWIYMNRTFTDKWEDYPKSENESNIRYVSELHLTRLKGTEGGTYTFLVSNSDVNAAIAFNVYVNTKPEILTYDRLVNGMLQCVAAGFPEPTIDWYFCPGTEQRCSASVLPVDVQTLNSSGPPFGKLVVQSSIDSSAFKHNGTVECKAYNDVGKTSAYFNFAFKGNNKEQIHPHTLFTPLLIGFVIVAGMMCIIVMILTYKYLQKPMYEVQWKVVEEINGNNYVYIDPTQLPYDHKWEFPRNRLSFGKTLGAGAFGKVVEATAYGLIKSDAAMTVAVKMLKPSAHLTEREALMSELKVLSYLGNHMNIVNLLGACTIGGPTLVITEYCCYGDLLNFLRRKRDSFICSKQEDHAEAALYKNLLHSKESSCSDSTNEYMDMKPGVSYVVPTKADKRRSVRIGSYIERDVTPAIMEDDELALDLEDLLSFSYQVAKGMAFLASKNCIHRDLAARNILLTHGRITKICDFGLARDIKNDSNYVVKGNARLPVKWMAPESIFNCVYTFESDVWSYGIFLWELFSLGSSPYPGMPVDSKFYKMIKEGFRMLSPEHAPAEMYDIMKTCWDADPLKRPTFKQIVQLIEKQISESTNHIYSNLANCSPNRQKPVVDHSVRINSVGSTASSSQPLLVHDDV
Description: GIST-T1 cells were collected with trypsin (on ice), and 1×10⁶ cells were dispensed into 1.5 mL tubes. The cells were washed three times with 1 mL of PBS-BSA-Azide. To each tube, 1 mL of 4% paraformaldehyde cooled to 4° C. was added and mixed by gentle pipetting on ice. The tubes were returned to room temperature and left to stand for 15 minutes (the subsequent process was carried out at room temperature). The cells were washed three times with 1 mL of PBS-BSA-Azide.
To GIST-T1 cell pellets, 100 μL of each antibody solution prepared with PBS-BSA-Azide was added and mixed. The mixtures were prepared to contain 10 μg of the IR700-labeled mouse anti-c-KIT (12A8) antibody, 10 μg of the IR700-labeled humanized anti-c-KIT (12A8) IgG1 antibody, and 10 μg of the IR700-labeled humanized anti-c-KIT (12A8) Fab antibody, respectively. Each mixture was covered with aluminum foil in the dark and allowed to react at room temperature (from 20° C. to 25° C.) for 60 minutes (the subsequent process was carried out in the dark as much as possible). Washing was performed three times by adding 1 mL of PBS-BSA-Azide. After adding 500 μL of PBS-BSA-Azide and mixing, each mixture was passed through a filter (42-μm nylon mesh, AS ONE Corporation). Measurement was performed using FACS (CytoFLEX (Beckman Coulter)) with excitation at 638 nm and 712/25BP.

[1] = molecular target: T1, FLT4-Fc (fusion product of the …); assay: EIA, antigen solid-phased in 96-well plate, HRP anti-human Kappa detection
Excerpt: Since the antigen recognition site of the anti-c-KIT (12A8) antibody is the extracellular region of the human c-KIT protein, a fusion protein (c-KIT-Fc) of the c-KIT extracellular region and the Fc region of the mouse antibody was used as the antigen for EIA. A fusion product of the extracellular region of the human FLT4 protein and mouse antibody Fc (FLT4-Fc) was used as a negative control.
Each above was solid-phased in a 96-well plate, blocked with a BSA solution, washed, sufficiently dried, and then stored in a refrigerator until use. The humanized anti-c-KIT (12A8) IgG1 antibody-producing clone culture supernatant was diluted 2-fold to 64-fold and added to an antigen solid-phase plate and a negative control plate so as to perform a primary reaction. The same was performed for the humanized anti-c-KIT (12A8) Fab antibody. The primary reaction was carried out for one hour at room temperature, and then each well was washed with phosphate-buffered saline (PBS). The HRP-labeled anti-human Kappa chain antibody was added as a secondary antibody and reacted for 30 minutes at room temperature. Thereafter, each well was washed with PBS, and the substrate OPD (Sigma-Aldrich) was added to develop a color. IN sulfuric acid was added to stop the reaction, and the absorbance at 490 nm was measured.

Row | Binder | binding result (human c-KIT) | binding result [1]
1 | IR700-labeled mouse anti-c-KIT (12A8) antibody (whole IgG) (antibody, V domains shown, IR700 (IRDye700DX) conjugated, residues not stated, Mouse IgG1 12A8 conjugated with IRDye700DX; also called IR700-12A8 (whole IgG); IR700-12A8 Whole IgG) VH: EVQLQQSGPELVKTGTSVKISCKASGYSFSNYYMHWVKQSHGKSLEWIGYISCFNGATTYNQKFRGKATFTVDTSSSTTYMQFNSLTSEDSAVYFCARRTAGAMDYWGQGTSVTVSS VL: EVVVTQTPLSLPVSFGDQVSISCRSSQSLANSYGNTYLSWYLHKPGQSPQLLIYGISNRFSGVPDRFSGSGSGTEFTLEISTIKPEDLGMYYCLQGTHQPYTFGGGTKLEIKR | binds | 
2 | IR700-labeled humanized anti-c-KIT (12A8) IgG1 antibody (antibody, V domains shown, IR700 (IRDye700DX) conjugated, residues not stated, The antibody was purified on protein A before labeling; also called Humanized Whole IgG) VH: QVQLVQSGAEVKKPGASVKVSCKASGYSFSNYYMHWVRQAPGQRLEWMGYISCFNGATTYNQKFRGRVTITRDTSASTAYMELSSLRSEDTAVYYCARRTAGAMDYWGQGTLVTVSS VL: DIVMTQTPLSLSVTPGQPASISCRSSQSLANSYGNTYLSWYLQKPGQSPQLLIYGISNRFSGVPDRFSGSGSGTDFTLKISRVEAEDVGVYYCLQGTHQPYTFGGGTKVEIKR | binds | 
3 | IR700-labeled humanized anti-c-KIT (12A8) Fab antibody (Fab, V domains shown, IR700 (IRDye700DX) conjugated, residues not stated, The Fab was purified on Kan Cap G before labeling; also called Humanized Fab) VH: QVQLVQSGAEVKKPGASVKVSCKASGYSFSNYYMHWVRQAPGQRLEWMGYISCFNGATTYNQKFRGRVTITRDTSASTAYMELSSLRSEDTAVYYCARRTAGAMDYWGQGTLVTVSS VL: DIVMTQTPLSLSVTPGQPASISCRSSQSLANSYGNTYLSWYLQKPGQSPQLLIYGISNRFSGVPDRFSGSGSGTDFTLKISRVEAEDVGVYYCLQGTHQPYTFGGGTKVEIKR | binds | 

Other lines, results leading:

Row | binding result (human c-KIT) | binding result [1] | Binder
4 |  | no binding | humanized anti-c-KIT (12A8) Fab antibody (Fab, V domains shown, Recombinant Fab, tested in the EIA as CHO-K1 culture supernatant; also called Fab fragment of the humanized anti-c-KIT (12A8) antibody) VH: QVQLVQSGAEVKKPGASVKVSCKASGYSFSNYYMHWVRQAPGQRLEWMGYISCFNGATTYNQKFRGRVTITRDTSASTAYMELSSLRSEDTAVYYCARRTAGAMDYWGQGTLVTVSS VL: DIVMTQTPLSLSVTPGQPASISCRSSQSLANSYGNTYLSWYLQKPGQSPQLLIYGISNRFSGVPDRFSGSGSGTDFTLKISRVEAEDVGVYYCLQGTHQPYTFGGGTKVEIKR
5 |  | no binding | humanized anti-c-KIT (12A8) IgG1 antibody (antibody, V domains shown, Human IgG1 / kappa, tested in the EIA as CHO-K1 culture supernatant; also called humanized c-KIT (12A8) IgG1; humanized anti-c-KIT (12A8) antibody (whole IgG)) VH: QVQLVQSGAEVKKPGASVKVSCKASGYSFSNYYMHWVRQAPGQRLEWMGYISCFNGATTYNQKFRGRVTITRDTSASTAYMELSSLRSEDTAVYYCARRTAGAMDYWGQGTLVTVSS VL: DIVMTQTPLSLSVTPGQPASISCRSSQSLANSYGNTYLSWYLQKPGQSPQLLIYGISNRFSGVPDRFSGSGSGTDFTLKISRVEAEDVGVYYCLQGTHQPYTFGGGTKVEIKR
